In article PMC3578932, “In Vitro Characterization of Echinomycin Biosynthesis: Formation and Hydroxylation of L-Tryptophanyl-S-Enzyme and Oxidation of (2S,3S) β-Hydroxytryptophan” (PLoS ONE, 2013):
Each block holds one compound with its values, some of them ahead of it.

Key:
[1] = target: A-PCP didomain NRPS protein Qui18 (Streptomyces griseovariabilis subsp. bandungensis subsp. nov) (UniProt G9JKM4); assay: SEC; copurified His6-tagged Qui5 and Qui18 from coexpression; peak at around 160 kD; fraction analysed by SDS-PAGE (data not shown); conditions: scale: subunits of Qui5 with 2 subunits of Qui18
[2] = target: T1, Qui5 and holo-Qui18 coexpression product (complex) (Streptomyces griseovariabilis, UniProt G9JKM4); assay: Q-TOF-MS of amino acid loading onto holo-Qui18; format: biochemical; conditions: covalent; thioester to 4'-phosphopantetheine of the PCP domain; 5 mM L-tryptophan, 5 mM ATP, 10 mM MgCl2, 2 mM DTT, pH 8.0, 27°C, 2 hr
T1 construct: full-length A-PCP didomain Qui18 (611 aa) and Qui5 (71 aa), both His6-tagged, coexpressed in E. coli BL21(DE3) with B. subtilis sfp; holo form 64,836 Da (4'-phosphopantetheine on PCP Ser); hetero-tetramer about 160 kD; with MbtH-like protein

[3] = target: tryptophan 2,3-dioxygenase Qui17 (Streptomyces griseovariabilis subsp. bandungensis subsp. nov); assay: SEC; purified His-tagged Qui17; data not shown

stoichiometry N [1]: 2
Compound: MbtH-like protein Qui5 (natural protein)

Compound: N[C@@H](Cc1c[nH]c2ccccc12)C(=O)O [L-tryptophan]
Q-TOF-MS of amino acid loading onto holo-Qui18 [2]: Qui18 recognized L-tryptophan as its substrate and its function depended on the association with Qui5

stoichiometry N [3]: 4
Compound: tryptophan 2,3-dioxygenase Qui17 (enzyme)
